Data on one molecule can be found in patent US20230287092A1 (AstraZeneca / MedImmune, published 2023).

This assay deals with cynomolgus monkey Aβ42 (cynomolgus monkey, UniProt P53601 672-713). In words: cell-based or functional assay.
Sequence of cynomolgus monkey Aβ42 (P53601 672-713 limits assumed): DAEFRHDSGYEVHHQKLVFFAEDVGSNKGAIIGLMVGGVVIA

B1: MEDI1814 (antibody, V domains shown)
VH: EVQLLESGGGLVQPGGSLRLSCAASMGNFNYQTMWWVRQAPGKGLEWVSVIGKTNENIAYADSVKGRFTISRDNSKNTLYLQMNSLRAEDTAVYYCAREWMDHSRPYYYYGMDVWGQGTLVTVSS
VL: SYELTQPPSVSVSPGQTASITCSGHNLEDKFASWYQQKPGQSPVLVIYRDDKRPSGIPERFSASNSGHTATLTISGTQAMDEADYYCSSQDTVTRVFGGGTKLTVL
Consider B1, for which the “increase in total CSF Aβ42, 14 weekly doses, cynomolgus monkeys” value is ≤ 7.7 fold and the “increase in total plasma Aβ42 against control, 14 weekly doses (10 or 100 mg/kg IV, 75 mg/kg SC), cynomolgus monkeys” value is ≤ 2060 fold.
